Substrate in data set [1]: N[C@@H](CC1(C(=O)O)C=CC(O)C=C1)C(=O)O
In words: ADH and PDH assay: steady-state kinetics and Tyr inhibition, GmPDH1 wild type. The class given is biochemical, Glycine max (soybean). To be noted: other: 0.5 mM NADP^+, pH 7.6, 37° C. The protocol: (§1) Kinetic parameters of purified recombinant proteins were determined from assays conducted at varying arogenate (19.5 μM-5 mM) and prephenate concentration (23.4 μM-6 mM). Standard assay conditions were 25 mM HEPES pH 7.6, 50 mM KCl and 10% (v/v) ethylene glycol, and 0.5 mM NADP^+ with varied substrate, concentrations. Reactions were initiated by addition of enzyme and incubated at 37° C. monitored every 10-15 seconds at […] using a microplate reader (Tecan Genios). Kinetic parameters were determined by fitting initial velocity data to the Michaelis-Menten equation using the Origin software (OriginLab).
(§2) Arogenate was prepared by enzymatic conversion of prephenate (Sigma-Aldrich) as previously reported^56. For Tyr inhibition assays, Tyr was dissolved in a slightly basic solution (0.025 N NaOH) due to solubility issues, thus the concentration of lysis buffer was increased to 500 mM HEPES final concentration to buffer against the changes by addition of Tyr in the reaction. […]

Substrate in data set [2]: O=C(O)C(=O)CC1(C(=O)O)C=CC(O)C=C1
The description is as above. The format is biochemical, Glycine max (soybean). To be noted: other: 0.5 mM NADP^+, pH 7.6, 37° C. The procedure: as §1, §2

Data set [3] can be described thus: PDH assay: steady-state kinetics of purified recombinant plant enzymes with prephenate. The format is biochemical. To be noted: prephenate versus arogenate, NADP+ cofactor.
Text: As used herein, a polypeptide may “have greater arogenate dehydrogenase activity than prephenate dehydrogenase activity” or “have greater prephenate dehydrogenase activity than arogenate dehydrogenase activity” when the steady-state kinetic parameters (kcat/Km (mM^−1s^−1)) for arogenate dehydrogenase activity are greater than the steady-state parameters (kcat/Km (mM^−1s^−1)) for prephenate dehydrogenase activity or when the steady-state kinetic parameters (kcat/Km (mM^−1s^−1)) for prephenate dehydrogenase activity are greater than the steady-state parameters (kcat/Km (mM^−1s^−1)) for arogenate dehydrogenase activity. Steady-state kinetic parameters may be measured using techniques similar to those described by the inventors in the Examples. Briefly, kinetic parameters of purified polypeptides can be determined from assays conducted at varying arogenate and prephenate concentrations. Standard assay conditions include 25 mM HEPES pH 7.6, 50 mM KCl and 10% (v/v) ethylene glycol, and 0.5 mM NADP^+ with varied substrate, concentrations. Reactions can be initiated by the addition of the polypeptide and incubated at 37° C. monitored every 10-15 seconds at A340nm using a microplate reader. Kinetic parameters may be determined by fitting initial velocity data to the Michaelis-Menten equation using the Origin software.
as §1

Substrate in data set [4]: N[C@@H](CC1(C(=O)O)C=CC(O)C=C1)C(=O)O
In words: ADH and PDH assay: steady-state kinetics and Tyr inhibition, MtncADH wild type. The conditions noted are these: other: 0.5 mM NADP^+, pH 7.6, 37° C. The class given is biochemical, Medicago truncatula. The protocol: as §1
(§3) Arogenate was prepared by enzymatic conversion of prephenate (Sigma-Aldrich) as previously reported^56. For Tyr inhibition assays, Tyr was dissolved in a slightly basic solution (0.025 N NaOH) due to solubility issues, thus the concentration of lysis buffer was increased to 500 mM HEPES final concentration to buffer against the changes by addition of Tyr in the reaction. Reactions containing varying amounts of Tyr (10 μM-8 mM) with 0.5 mM NADP^+ and either 1 mM arogenate or 0.8 mM prephenate were monitored as above.

Substrate in data set [5]: O=C(O)C(=O)CC1(C(=O)O)C=CC(O)C=C1
Described as above. The format is biochemical, Medicago truncatula. The conditions noted are these: other: 0.5 mM NADP^+, pH 7.6, 37° C. The protocol: as §1, §3

Data set [6] in a line: PDH assay of microbial TyrA enzymes (Example 2). The format is biochemical. The protocol: ADH and PDH assays were performed using purified recombinant enzymes for SsTyrA and MhTyrA Wt and Q227E mutant, while the E. coli cell lysate was used for OiTyrA as expression and purification of this enzyme was unsuccessful. Reactions contained 0.8 mM substrate (arogenate or prephenate) and 0.8 mM cofactor (NADP+ or NAD+) together with reaction buffer (25 mM HEPES pH 7.6, 50 mM KCl, 10% (v/v) ethylene glycol). For OiTyrA assays containing cell lysates, reactions were incubated for 45 minutes and analyzed using HPLC as previously reported (Schenck et al., 2015). For pure enzymes, reactions were monitored every 10-15 seconds for reduced cofactor at A340 nm using a microplate reader (Tecan Genios). Kinetic parameters of purified recombinant enzymes were determined from assays containing varying concentrations of arogenate (39.1 μM-5 mM) or prephenate (39.1 μM-5 mM) substrate and monitored 10-15 seconds for reduced cofactor at A340 nm using a microplate reader (Tecan Genios). Kinetic parameters were determined by fitting initial velocity data to the Michaelis-Menten equation using Origin software (OriginLab) from technical replicate assays (n=3). Arogenate substrate was prepared by enzymatic conversion of prephenate (Sigma-Aldrich). All enzyme assays were conducted at a reaction time and protein concentration that were in the linear range and proportional to reaction velocity.

Substrate in data set [7]: N[C@@H](CC1(C(=O)O)C=CC(O)C=C1)C(=O)O
In words: ADH and PDH assay: steady-state kinetics and Tyr inhibition, SolyncADH wild type. The format is biochemical, Solanum lycopersicum (tomato). The conditions noted are these: other: 0.5 mM NADP^+, pH 7.6, 37° C. The protocol: as §1, §3

Substrate in data set [8]: N[C@@H](CC1(C(=O)O)C=CC(O)C=C1)C(=O)O
In words: ADH and PDH assay: steady-state kinetics and Tyr inhibition, GmncADH wild type. To be noted: other: 0.5 mM NADP^+, pH 7.6, 37° C. The format is biochemical, Glycine max (soybean). The protocol: as §1, §3

By Km is commonly meant the concentration of substrate that gives half-maximal velocity. The term kcat denotes the number of substrate molecules converted per active site and unit of time at saturation. The kcat/Km is the turnover number divided by the Michaelis constant.

B1: GmPDH1 (Gm18g02650), soybean (Glycine max) prephenate dehydrogenase, wild type (Glycine max) (protein)
chain: MSTSSSSQSLKIGIVGFGNFGQFLAKTMIKQGHTLTATSRSDYSELCLQMGIHFFRDVSAFLTADIDVIVLCTSILSLSEVVGSMPLTSLKRPTLFVDVLSVKEHPRELLLRELPEDSDILCTHPMFGPQTAKNGWTDHTFMYDKVRIRDEVICSNFIQIFATEGCKMVQMSCEEHDRAAAKSQFITHTIGRTLGEMDIQSTPIDTKGFETLVKLKETMMRNSFDLYSGLFVYNRFARQELENLEHALHKVKETLMIQRTNGEQGHKRTES
notes: homodimer
With B1, in data set [1], the Km came out at 2590 ± 90 µM, the kcat came out at 6.3 ± 0.7 s⁻¹ and the kcat/Km turned out to be 2430 M⁻¹ s⁻¹. Also, in data set [2], the Km worked out at 90 ± 10 µM, the kcat amounted to 30.4 ± 0.7 s⁻¹ and the kcat/Km was found to be 338000 M⁻¹ s⁻¹.

B2: GmPDH1 N222D: site-directed mutant of soybean PDH, Asn222 to Asp (protein)
chain: MSTSSSSQSLKIGIVGFGNFGQFLAKTMIKQGHTLTATSRSDYSELCLQMGIHFFRDVSAFLTADIDVIVLCTSILSLSEVVGSMPLTSLKRPTLFVDVLSVKEHPRELLLRELPEDSDILCTHPMFGPQTAKNGWTDHTFMYDKVRIRDEVICSNFIQIFATEGCKMVQMSCEEHDRAAAKSQFITHTIGRTLGEMDIQSTPIDTKGFETLVKLKETMMRDSFDLYSGLFVYNRFARQELENLEHALHKVKETLMIQRTNGEQGHKRTES
modifications: Synthetic: GmPDH1 N222D
notes: site-directed mutant of soybean PDH, Asn222 to Asp
B2: the “substrate specificity: PDH versus ADH activity (in words)” value in data set [3] was “gained ADH activity”.

B3: MtncADH (Mt5g083530), Medicago truncatula noncanonical arogenate dehydrogenase, wild type (Medicago truncatula) (protein)
chain: MSNSPSLKIGIVGFGSFGQFLAKTMIKQGHTLTATSRTDYSHTCLQLGIQFFRDVGTFIEANNDVILICTSIMSFTKVLSSMPLACLKKPTTLFVDVLSVKEHPREVLLRVLPEESDILCTHPMFGPESGKNGWKDLNFMYDKVRIHDEATCSNFLHIFASEGCKMLQMSCEEHDKIAAKSQFITHTIGRTLAEMDIESTPIDTKGFQTLTQLKNTTMRDSFDLYSGLFVHNRFAKQELENLQRALDRVKEMLVQRMREELGPEKD
notes: wild type
Take B3: in data set [4], the Michaelis constant (Km) came to 140 ± 20 µM, the kcat is 39 ± 7.6 s⁻¹ and the kcat/Km turned out to be 279000 M⁻¹ s⁻¹. Besides, in data set [5], the Km worked out at 6690 ± 270 µM, the kcat was 0.3 ± 0.1 s⁻¹ and the kcat/Km is 45 M⁻¹ s⁻¹.

B4: Wild-type: wild-type archaeon TyrA from Methanosaeta harundinacea, recombinant (protein)
chain: MTTMANSGTKNRMLIVGGTGGTGSWFAKYFKEHGFLVSIWGPSGKVEVAERLGVKFARDLMAEVAKSDVVLLSVPIKETAKVVEEVAPRMRPGSLLMDVTSLKAEPMKAMLRWAPDGVEVLGTHPMFGPTIPTIRGQTVILVPAAGRCDEWLLPMEEIFQEDGARVEVLGAEEHDRIMAVVQALTHFAYISIGSTLRSLDFDIAHSRRLMSPVYEIMIDFVGRILAQSPELYSSIQENPEAKRVREAYIEECQRLSKLADTGNSEGFMEAMRSAADHFDEREVALARSDRLISLWIDHREGKRRGLEPRW
modifications: M. harundinacea; misc_feature (1)..(310): M. harundinacea TyrA MhTyrA
notes: wild-type archaeon TyrA from Methanosaeta harundinacea, recombinant
As to B4, in data set [6] (0.8 mM arogenate or prephenate, 0.8 mM cofactor), the “ADH and PDH activity (in words)” value is “strong PDH and very weak ADH activity”. The “cofactor preference (in words)” value in data set [6] (PDH activity, NADP+ versus NAD+, 0.8 mM) is “strongly preferred NADP+ over NAD+ cofactor”.

B5: SolyncADH (Slycopersicum06g050630), tomato noncanonical arogenate dehydrogenase, wild type (Solanum lycopersicum) (protein)
chain: MSSSSSCQPKTLRIGIIGFGPFAQFLAKTMMKQGHCIHVTSRSDYSELCTDLGILFFRDMGAFLESDNEVIMISTSILSLSQVVESIPFNCLKRPTLFVDVLSVKEHPKDVLLRMMPRECDLLCTHPMFGPESGKDGWEDLTFMYDMVRIRDQPLCSSFLHIFSSEGCKMLEMTCEKHDRLAAQSQFLTHTIGRILSEMEVEPTPIDTKGFQKLVQVKESSVKDSFDLFSGLFIHNRFARQQMKNLEVALEKTKEKLQERSKELQDPIISKF
notes: wild type
Regarding B5, in data set [7], the Km was found to be 450 ± 50 µM, the kcat was determined as 15.9 ± 2.1 s⁻¹ and the kcat/Km worked out at 35300 M⁻¹ s⁻¹.

B6: SolyncADH: noncanonical arogenate dehydrogenase from tomato, wild-type (protein, listed as Solanum lycopersicum)
chain: MSSSSSCQPKTLRIGIIGFGPFAQFLAKTMMKQGHCIHVTSRSDYSELCTDLGILFFRDMGAFLESDNEVIMISTSILSLSQVVESIPFNCLKRPTLFVDVLSVKEHPKDVLLRMMPRECDLLCTHPMFGPESGKDGWEDLTFMYDMVRIRDQPLCSSFLHIFSSEGCKMLEMTCEKHDRLAAQSQFLTHTIGRILSEMEVEPTPIDTKGFQKLVQVKESSVKDSFDLFSGLFIHNRFARQQMKNLEVALEKTKEKLQERSKELQDPIISKF
modifications: misc_feature (1)..(272): SolyncADH WT
notes: noncanonical arogenate dehydrogenase from tomato, wild-type
B6: the “substrate specificity: PDH versus ADH activity (in words)” value in data set [3] is on record as “exhibited ADH but not PDH activity”.

B7: GmncADH (Gm14g05990), soybean (Glycine max) noncanonical arogenate dehydrogenase, wild type (Glycine max) (protein)
chain: MSTWSLKIGVVGFGSFGQFLAKTMIKQGHTLRATSRTDYSLLCLPMGIQFFRDVAAFLEADNDVILVCTSILSLSEVLSSMPLTCLKRSTLFVDVLSVKEHPRNLLIKVLPEESDILCTHPMFGPDSGKDGWQDLTFVYDKVRIRDEAICSSFLHIFASEGCRMLQMSCEEHDKIAAKSQFITHTIGRTLAEMDIKSTPIDTKGFHSLVQLKDTTIRDSFDLYSGLFLHNRFAVQELENLEHALHKVKEMLVQRKSEELGLEKTEC
notes: wild type
On to B7, for which, in data set [8], the Km is 410 ± 30 µM, the kcat was found to be 27.7 ± 1.1 s⁻¹ and the kcat/Km came out at 67600 M⁻¹ s⁻¹.

B8: MtPDH C220D: site-directed mutant of M. truncatula PDH, Cys220 to Asp (protein)
chain: MSSSSKSLKIGIVGFGTFGQFLANTMIKQGHTLTATSRTDYSQLCDQMGIHFFRDITAFLDADMDVILLCTSISSLSEVVGSMPLACLKRPTLFVDVLSVKEHPKNLLLKVLPEESDILCTHPMFGPVSGKNGWQNLTFMFDKVRIKDEVTCSKFLQIFASEGCKMVEMSCEEHDKAAAKSQFITHTIGRTLAEMDIKSTPIDTKGFQTLVELKKPVMGDSFDLYSGLFVYNRFARQELENLEHALHKVKEMLVQRIDEGQNPERTES
modifications: Synthetic: MtPDH C220D
notes: site-directed mutant of M. truncatula PDH, Cys220 to Asp
Consider B8, for which, in data set [3], the “substrate specificity: PDH versus ADH activity (in words)” value is “reduced PDH activity and enhanced ADH activity”.

(Values after patent US12134788B2, “Engineered prephenate dehydrogenases and arogenate dehydrogenases and methods of using the same” (Wisconsin Alumni Research Foundation, priority 2017, dated 2024).)
